Measured values as given in paper PMC9433327.
Like-named read-outs stand apart in the source and are kept apart here.

Tests used:
[1] = biological target: LRPL-1 (cDNA lacking the signal peptide) (C. elegans); assay: SPR; LRPL-1 biotinylated and captured on a Streptavidin chip, Biacore X100; DMA-1 ectodomain as analyte at 78 nM to 10 µM; HBS (10 mM HEPES pH 7.2, 150 mM NaCl) with 0.05% Tween-20 and 0.1% BSA; kinetic fit and steady-state fit (Langmuir 1:1)
[2] = biological target: LRPL-1 (cDNA lacking the signal peptide) (C. elegans); assay: as above; remark: listed apart in the source

Kd [1]: 3.9 µM
koff [1]: 0.018 s⁻¹
kon [1]: 4600 M⁻¹ s⁻¹
Kd [2]: 6.9 µM
Substance: DMA-1 ectodomain (amino acids Leu20 to Leu507) (domain or fragment)
